From article PMC9830511, “Flot2 acts as a novel mediator of podocyte injury in proteinuric kidney disease” (International Journal of Biological Sciences, 2023)

Target: T1, GST-Flot2 full length (amino acids 1-428) (mouse, UniProt Q60634 1-428)
T1 construct: it may add a CBP tag as well; also called GST-tagged Flot2
T1 sequence (looked up): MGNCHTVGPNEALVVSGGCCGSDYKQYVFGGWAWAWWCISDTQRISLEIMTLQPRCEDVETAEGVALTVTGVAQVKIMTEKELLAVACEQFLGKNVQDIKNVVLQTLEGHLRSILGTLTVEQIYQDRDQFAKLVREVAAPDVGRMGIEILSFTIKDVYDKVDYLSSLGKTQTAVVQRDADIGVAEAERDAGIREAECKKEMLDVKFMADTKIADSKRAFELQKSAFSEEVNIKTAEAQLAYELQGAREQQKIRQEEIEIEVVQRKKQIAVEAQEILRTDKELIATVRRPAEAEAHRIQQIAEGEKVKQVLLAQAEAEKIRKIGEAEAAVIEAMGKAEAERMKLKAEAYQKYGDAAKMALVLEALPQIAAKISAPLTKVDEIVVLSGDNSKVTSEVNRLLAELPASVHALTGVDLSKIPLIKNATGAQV
Assay: pull-down; GST pull-down: GST-Flot2 (full length) on GST resin, His-podocin (full length); overnight at 4 °C; eluted with 20 mM reduced glutathione; immunoblot with anti-His
Conditions: both partners purified

B1: His-podocin full length (natural protein, mouse, UniProt Q91X05 1-385, looked up)
chain: MDSRARSSSREAHGRSSRSSSRDDKKAKAGRGSRGRARPDAGAERQSTGRTATRGEPRAPAATATVVDVDEVRGPGEEGTEVVALLESERPEEGIKPSGLGACEWLLVLASLIFIIMTFPFSIWFCIKVVQEYERVIIFRLGHLLPGRAKGPGLFFFLPCLDTYHKVDLRLQTLEIPFHEVVTKDMFIMEIDAVCYYRMENASLLLSSLAHVSKAIQFLVQTTMKRLLAHRSLTEILLERKSIAQDVKVALDAVTCIWGIKVERTEIKDVRLPAGLQHSLAVEAEAQRQAKVRVIAAEGEKAASESLRMAAEILSGTPAAVQLRYLHTLQSLSTEKPATVVLPLPFDMLSLLSSPGNRAQGSINYPSSSKPVEPLNPKKKDSPML
notes: Podocin, mouse, full-length cDNA in pET-28a(+); also called His-tagged podocin; His-tagged mouse podocin
B1: binds.
